The term EC50 denotes the concentration at which the effect is half-maximal.

For assay [1], the target named is MUC1 on HCT116/MUC1 cells (human) (UniProt P15941). The experiment in a line: flow cytometry on HCT116-MUC1 cells, 5 µg isotype control, 60 min on ice.
Assay [2] shares this target. As to the kind of experiment: flow cytometry titration on HCT116/MUC1 cells; isotype control.

Chain of MUC1 on HCT116/MUC1 cells (human) (P15941 24-1255): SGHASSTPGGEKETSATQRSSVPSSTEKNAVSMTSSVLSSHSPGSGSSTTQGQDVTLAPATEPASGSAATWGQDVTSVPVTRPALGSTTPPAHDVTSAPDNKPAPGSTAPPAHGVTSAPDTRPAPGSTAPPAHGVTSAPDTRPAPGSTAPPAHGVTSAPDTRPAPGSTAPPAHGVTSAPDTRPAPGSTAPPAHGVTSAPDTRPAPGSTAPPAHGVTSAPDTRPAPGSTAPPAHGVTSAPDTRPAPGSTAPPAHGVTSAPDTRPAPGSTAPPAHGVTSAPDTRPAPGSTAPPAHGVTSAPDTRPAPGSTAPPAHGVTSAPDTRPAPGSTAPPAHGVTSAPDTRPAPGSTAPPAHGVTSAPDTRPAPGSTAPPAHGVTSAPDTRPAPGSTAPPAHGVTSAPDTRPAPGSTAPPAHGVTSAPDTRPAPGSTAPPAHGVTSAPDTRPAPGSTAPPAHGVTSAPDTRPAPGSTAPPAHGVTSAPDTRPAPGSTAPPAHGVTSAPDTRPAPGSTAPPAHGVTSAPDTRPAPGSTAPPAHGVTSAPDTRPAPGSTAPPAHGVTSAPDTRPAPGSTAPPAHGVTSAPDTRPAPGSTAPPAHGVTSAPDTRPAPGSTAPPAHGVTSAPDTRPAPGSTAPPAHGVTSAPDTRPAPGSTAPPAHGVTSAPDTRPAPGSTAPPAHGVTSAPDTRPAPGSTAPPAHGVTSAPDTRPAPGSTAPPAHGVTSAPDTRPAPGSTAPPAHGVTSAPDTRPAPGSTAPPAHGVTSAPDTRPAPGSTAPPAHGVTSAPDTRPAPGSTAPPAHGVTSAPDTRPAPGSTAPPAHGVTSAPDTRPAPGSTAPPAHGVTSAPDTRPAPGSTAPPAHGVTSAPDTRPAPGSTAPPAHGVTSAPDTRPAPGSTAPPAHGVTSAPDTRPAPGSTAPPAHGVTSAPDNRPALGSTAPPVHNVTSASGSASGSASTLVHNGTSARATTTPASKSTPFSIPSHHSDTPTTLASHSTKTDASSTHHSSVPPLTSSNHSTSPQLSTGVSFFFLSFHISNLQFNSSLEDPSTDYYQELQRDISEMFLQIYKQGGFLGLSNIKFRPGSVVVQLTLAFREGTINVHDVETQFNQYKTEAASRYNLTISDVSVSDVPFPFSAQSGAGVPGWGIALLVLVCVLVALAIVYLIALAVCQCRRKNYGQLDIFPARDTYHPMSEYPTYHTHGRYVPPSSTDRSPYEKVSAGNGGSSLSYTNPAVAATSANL

Regarding Control (antibody), the number over the gate bar (share of cells in the positive gate) in assay [1] amounted to 0.6.

Human IgG (antibody) yielded an EC50 in assay [2] of 0.292 nM. This counts as sub-nanomolar.

Values taken from patent US20230265208A1.
